B1: trigger factor (TF) (natural protein, E. coli, UniProt P0A850 1-432, looked up)
chain: MQVSVETTQGLGRRVTITIAADSIETAVKSELVNVAKKVRIDGFRKGKVPMNIVAQRYGASVRQDVLGDLMSRNFIDAIIKEKINPAGAPTYVPGEYKLGEDFTYSVEFEVYPEVELQGLEAIEVEKPIVEVTDADVDGMLDTLRKQQATWKEKDGAVEAEDRVTIDFTGSVDGEEFEGGKASDFVLAMGQGRMIPGFEDGIKGHKAGEEFTIDVTFPEEYHAENLKGKAAKFAINLKKVEERELPELTAEFIKRFGVEDGSVEGLRAEVRKNMERELKSAIRNRVKSQAIEGLVKANDIDVPAALIDSEIDVLRRQAAQRFGGNEKQALELPRELFEEQAKRRVVVGLLLGEVIRTNELKADEERVKGLIEEMASAYEDPKEVIEFYSKNKELMDNMRNVALEEQAVEAVLAKAKVTEKETTFNELMNQQA
B2: zinc-binding domain (ZBD) of ClpX (domain or fragment, E. coli)
chain: TDKRKDGSGKLLYCSFCGKSQHEVRKLIAGPSVYICDECVDLCNDIIREEIKEVAPHRER
notes: Tag removal rests on the words 'purified by the same procedure as TFN'; Isotopically labelled in one NMR experiment; also called ClpX ZBD; ZBD dimer; source: E. coli BL21(DE3), purified (Ni Sepharose, gel filtration; same procedure as TFN; 100 μM ZnCl2 added before size exclusion)
B3: λ phage replication protein λO (natural protein, UniProt P03688 1-333, looked up)
chain: MTNTAKILNFGRGNFAGQERNVADLDDGYARLSNMLLEAYSGADLTKRQFKVLLAILRKTYGWNKPMDRITDSQLSEITKLPVKRCNEAKLELVRMNIIKQQGGMFGPNKNISEWCIPQNEGKSPKTRDKTSLKLGDCYPSKQGDTKDTITKEKRKDYSSENSGESSDQPENDLSVVKPDAAIQSGSKWGTAEDLTAAEWMFDMVKTIAPSARKPNFAGWANDIRLMRERDGRNHRDMCVLFRWACQDNFWSGNVLSPAKLRDKWTQLEINRNKQQAGVTASKPKLDLTNTDWIYGVDLKTSPHRWLTLTVSRCVGSPTTCRNSTTKSRRYSR
notes: replication protein O of phage λ
B4: ClpX (enzyme)
chain: not shown
notes: E. coli ClpX unfoldase (N-terminal ZBD and C-terminal AAA+ domain); expressed from pProEXHTb ClpX; the SPR running buffer held EDTA and no nucleotide, and the oligomeric state in that assay was not measured; also called WT ClpX; full-length ClpX; source: E. coli BL21(DE3), purified the same way as TF (Ni-NTA; His-tag removed with TEV protease)

Assays:
[1] = biological target: HV-ClpX (N-terminally tagged ClpX) (E. coli, UniProt P0A6H1 1-424); experiment: cell-based or functional assay
trigger factor (TF) = biological target: B1; experiment: SPR; TF immobilised on a CM5 chip by amine coupling, analytes injected at 20 μL/min for 90 s; Biacore X, 22 °C; 10 mM HEPES pH 7.5, 150 mM NaCl, 3 mM EDTA, 0.005% P20; steady-state response against concentration, one-site Langmuir model; apparent Kd for ClpX; conditions: both partners purified

Chain of HV-ClpX (N-terminally tagged ClpX) (P0A6H1 whole entry): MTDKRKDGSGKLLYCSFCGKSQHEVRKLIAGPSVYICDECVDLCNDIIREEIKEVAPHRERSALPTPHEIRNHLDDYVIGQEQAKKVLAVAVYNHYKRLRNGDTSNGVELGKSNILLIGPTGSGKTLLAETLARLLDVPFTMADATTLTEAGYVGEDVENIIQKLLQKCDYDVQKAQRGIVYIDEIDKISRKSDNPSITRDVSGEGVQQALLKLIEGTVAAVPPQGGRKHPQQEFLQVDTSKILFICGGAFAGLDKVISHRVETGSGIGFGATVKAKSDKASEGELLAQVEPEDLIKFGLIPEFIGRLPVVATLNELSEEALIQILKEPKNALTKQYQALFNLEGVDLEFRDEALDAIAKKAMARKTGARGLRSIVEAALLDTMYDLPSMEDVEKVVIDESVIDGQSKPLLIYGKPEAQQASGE

Row | Binder | clipping of HV-ClpX by bound ClpP with ATP, rate of disappearance of HV-ClpX with and without TF (Fig. 3b) [1] [fold] | Kd (trigger factor (TF)) [µM]
1 | B1 | > 2 | 
2 | B2 |  | 12.8
3 | B3 |  | 3.8
4 | B4 |  | 9.3
